Publication PMC3392930 (The Journal of Cell Biology, 2012)
Like-named read-outs stand apart in the source and are kept apart here.

Assays:
[1] = molecular target: S-tagged RSP3_(1–160) (Chlamydomonas reinhardtii) (UniProt P12759); assay: pull-down
cross-linking [2] = molecular target: the molecule itself; assay: cross-linking
cross-linking [3] = molecular target: the molecule itself; assay: cross-linking; remark: listed apart in the source

Molecule: His-tagged LC8 (natural protein)
- stoichiometry N (LC8 per RSP3 (1–160)) [1]: 3

B1: RSP3_(1–170)-Cys (domain or fragment, Chlamydomonas reinhardtii, UniProt P12759 1-170, looked up)
chain: MVQAKAQQQLYTHAAEPKAVQQRRAKYREDETTQTLPTANIMFDRRVVRGNTYAARILPADATQTQTKGPSPASTKKRTTRTLPPRTPEAVDGRRHIDIQTDVYLEELTDTVPEADTSTQTDAFLDRPPTPLFVPQKTGTDAITQIENGDLFDFDFEVEPILEVLVGKVL
- stoichiometry N (cross-linking [2]): 2

B2: RSP3_(1–170)-HAHis (domain or fragment, Chlamydomonas reinhardtii, UniProt P12759 1-170, looked up)
chain: MVQAKAQQQLYTHAAEPKAVQQRRAKYREDETTQTLPTANIMFDRRVVRGNTYAARILPADATQTQTKGPSPASTKKRTTRTLPPRTPEAVDGRRHIDIQTDVYLEELTDTVPEADTSTQTDAFLDRPPTPLFVPQKTGTDAITQIENGDLFDFDFEVEPILEVLVGKVL
- stoichiometry N (cross-linking [3]): 2
